Experiment [1] addresses recombinant human alpha synuclein A30P (human) (UniProt P37840). The experiment is described as follows: cell-based or functional assay.
Experiment [2] addresses recombinant human alpha synuclein A53T (human) (UniProt P37840). Briefly: cell-based or functional assay.
The target of experiment [3] is recombinant human alpha synuclein E46K (human) (UniProt P37840). Briefly: cell-based or functional assay.
The target of experiment [4] is recombinant human wild type alpha synuclein (human) (UniProt P37840). The experiment is described as follows: cell-based or functional assay.
Experiment [5] has as its target biotinylated alpha synuclein (aSN) 1-140 (UniProt P37840). Briefly: SPR (Biacore 8K), biotinylated aSN on SA chip, binder as analyte, 25 °C. (In SPR one partner is held on a chip, and binding of the other changes the refractive index at the surface.)
The target is the same in experiment [6]. Briefly: SPR (Biacore 8K), biotinylated aSN on SA chip, binder as analyte, 37 °C.

pKd: −log10 of the molar value.

The term pKd denotes −log10 of the Kd, conventionally taken in molar units. The koff is the first-order rate constant of dissociation. A low value points to slow dissociation. Usually kon stands for the rate constant with which the complex forms. For AS69 (designed binder), the Ranking of the binders in figure 5 (ThT aggregation assay) in experiment [1] turned out to be 5 rank; in experiment [2], 6 rank; in experiment [3], 4 rank; in experiment [4], 3 rank. Moreover, the pKd was 7.14 in experiment [5] and 7.19 in experiment [6]. For the same substance, the koff in experiment [5] stood at 0.000114 s⁻¹; in experiment [6] it was 0.000252 s⁻¹. Moreover, the values for the kon in experiment [5] and in experiment [6] were 1580 M⁻¹ s⁻¹ and 3880 M⁻¹ s⁻¹, respectively.
